This passage reports Kd results from article PMC7611084 (Chemical communications (Cambridge, England), 2020).

For data set [1], the target named is T1, SpCID1 (Schizosaccharomyces pombe, UniProt O13833).
T1 sequence (O13833 1-405): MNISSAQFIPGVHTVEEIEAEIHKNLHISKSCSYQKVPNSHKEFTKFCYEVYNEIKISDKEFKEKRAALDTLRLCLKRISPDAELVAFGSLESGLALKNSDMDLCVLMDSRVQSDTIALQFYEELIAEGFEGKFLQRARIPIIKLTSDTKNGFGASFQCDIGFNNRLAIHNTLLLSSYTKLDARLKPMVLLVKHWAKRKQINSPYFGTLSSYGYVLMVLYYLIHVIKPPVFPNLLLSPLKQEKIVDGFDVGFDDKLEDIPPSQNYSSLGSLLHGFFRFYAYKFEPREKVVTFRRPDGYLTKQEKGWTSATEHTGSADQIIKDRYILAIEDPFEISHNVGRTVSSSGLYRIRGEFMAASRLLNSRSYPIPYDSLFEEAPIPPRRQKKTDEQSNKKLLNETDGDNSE
The data set can be described thus: fluorescence titration. Type of data set: binding.

For data set [2], the target named is T2, SpCID1 (caffeine-induced death suppressor 1, terminal uridylyl transferase) (Schizosaccharomyces pombe, UniProt O13833 1-405).
T2 sequence: T1 sequence (O13833 1-405)
The data set can be described thus: EMSA. For orientation: In EMSA bound probe runs differently from free probe, usually more slowly.

Data set [3] has as its target T2, SpCID1 (caffeine-induced death …). The data set can be described thus: fluorescence titration.

One may read the Kd as the equilibrium constant for the complex coming apart. A lower Kd goes with higher affinity. In data set [1], `O=c1[nH]c(=O)n([C@@H]2O[C@H](COP(=O)(O)OP(=O)(O)OP(=O)(O)O)[C@@H](O)[C@H]2O)cc1-c1cc2ccccc2o1` [compound 2, BFUTP] displayed a Kd of 180 ± 40 nM.

B1: 3BFU (ssRNA)
RNA: UUACCAUAGAAUCAUGUGCCAUACAUCAU
modifications: 3'-terminal U (position 29) is 5-benzofuran-uridine (BFU)
In the case of B1, in data set [2], the Kd is about 5400 nM.

B2: 4BFU (ssRNA)
RNA: UUACCAUAGAAUCAUGUGCCAUACAUCAU
modifications: 3'-terminal U (position 29) is 5-benzofuran-uridine (BFU)
Molecule B2 displayed a Kd in data set [3] of 520 ± 40 nM.
